Source: patent publication US20180134765A1
Values belong to the binder of their own block, whether it stands above or below them.

Biological target: human NKG2D (Example 6 binding ELISA) (human) (UniProt P26718)
Assay: binding ELISA of the HER2 antibody heavy chain fusion on human NKG2D

Chain of human NKG2D (Example 6 binding ELISA) (human) (P26718 78-216 limits assumed): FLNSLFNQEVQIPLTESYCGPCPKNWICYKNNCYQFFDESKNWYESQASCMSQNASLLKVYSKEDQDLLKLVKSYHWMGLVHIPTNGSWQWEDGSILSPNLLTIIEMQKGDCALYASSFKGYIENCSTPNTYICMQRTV

- EC50 (read off the curve): 0.4 nM
B1: Her2-specific antibody heavy chain fusion to ULBP3 α1-α2 variant R162G (antibody, part only; not given: Anti-HER2 heavy and light chains, not shown: another chain or arm of the molecule; small tags and cut ends)
chain: AAEPHSLWYNFTIIHLPRHGQQWCEVQSQVDQKNFLSYDCGSDKVLSMGHLEEQLYATDAWGKQLEMLREVGQRLRLELADTELEDFTPSGPLTLQVRMSCESEADGYIRGSWQFSFDGRKFLLFDSNNRKWTVVHAGARRMKEKWEKDSGLTTFFKMVSMGDCKSWLRDFLMHRKKRLEPTAP

- EC50 (read off the curve): 1 to 2 nM
B2: Her2-specific antibody heavy chain fusion to ULBP2 α1-α2 variant R80W (antibody, part only; not given: Anti-HER2 heavy and light chains, not shown: another chain or arm of the molecule; small tags and cut ends)
chain: AAEPHSLSYDITVIPKFRPGPRWCAVQGQVDEKTFLHYDCGNKTVTPVSPLGKKLNVTTAWKAQNPVLREVVDILTEQLWDIQLENYTPKEPLTLQARMSCEQKAEGHSSGSWQFSFDGQIFLLFDSEKRMWTTVHPGARKMKEKWENDKVVAMSFHYFSMGDCIGWLEDFLMGMDSTLEPSAGAP
